US20260232827A1 (Zymeworks, published 2026)

How the values were obtained:
[1] = biological target: T1, human sodium-dependent phosphate transporter 2B (NaPi2b) (human, UniProt O95436 1-690); assay: flow cytometry on IGROV-1 cells (endogenous NaPi2b), 24 h at 4 C, anti-human IgG Fc AF647
T1 construct: UniProt ID is given as 095436 [sic]; also called hNaPi2b; Hu NaPi2b
T1 sequence: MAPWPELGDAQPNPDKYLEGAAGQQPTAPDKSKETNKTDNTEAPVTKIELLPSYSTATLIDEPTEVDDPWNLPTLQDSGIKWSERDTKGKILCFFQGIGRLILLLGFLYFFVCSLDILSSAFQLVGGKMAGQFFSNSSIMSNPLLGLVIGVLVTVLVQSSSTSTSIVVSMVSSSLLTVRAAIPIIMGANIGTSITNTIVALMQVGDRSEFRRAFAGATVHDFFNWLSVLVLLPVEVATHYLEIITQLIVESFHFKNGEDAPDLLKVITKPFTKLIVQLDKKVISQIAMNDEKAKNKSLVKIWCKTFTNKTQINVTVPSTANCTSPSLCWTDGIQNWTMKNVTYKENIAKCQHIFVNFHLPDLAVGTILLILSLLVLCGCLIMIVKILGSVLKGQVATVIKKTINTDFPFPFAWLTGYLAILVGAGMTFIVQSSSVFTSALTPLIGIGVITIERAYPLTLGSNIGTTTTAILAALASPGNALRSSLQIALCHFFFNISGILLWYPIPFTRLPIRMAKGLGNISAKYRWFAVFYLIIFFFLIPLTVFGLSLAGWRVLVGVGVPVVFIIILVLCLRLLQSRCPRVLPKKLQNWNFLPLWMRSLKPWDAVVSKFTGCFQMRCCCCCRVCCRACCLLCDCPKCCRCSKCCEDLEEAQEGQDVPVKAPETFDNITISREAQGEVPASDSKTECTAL

human NaPi2a = biological target: T2, human NaPi2a (human, UniProt Q06495 1-639); assay: flow cytometry on HEK293-6e cells transfected with human NaPi2a, 24 h at 4 C, anti-human IgG Fc AF647
T2 construct: whole, on cells; also called Hu NaPi2a; SLC34A1
T2 sequence (looked up): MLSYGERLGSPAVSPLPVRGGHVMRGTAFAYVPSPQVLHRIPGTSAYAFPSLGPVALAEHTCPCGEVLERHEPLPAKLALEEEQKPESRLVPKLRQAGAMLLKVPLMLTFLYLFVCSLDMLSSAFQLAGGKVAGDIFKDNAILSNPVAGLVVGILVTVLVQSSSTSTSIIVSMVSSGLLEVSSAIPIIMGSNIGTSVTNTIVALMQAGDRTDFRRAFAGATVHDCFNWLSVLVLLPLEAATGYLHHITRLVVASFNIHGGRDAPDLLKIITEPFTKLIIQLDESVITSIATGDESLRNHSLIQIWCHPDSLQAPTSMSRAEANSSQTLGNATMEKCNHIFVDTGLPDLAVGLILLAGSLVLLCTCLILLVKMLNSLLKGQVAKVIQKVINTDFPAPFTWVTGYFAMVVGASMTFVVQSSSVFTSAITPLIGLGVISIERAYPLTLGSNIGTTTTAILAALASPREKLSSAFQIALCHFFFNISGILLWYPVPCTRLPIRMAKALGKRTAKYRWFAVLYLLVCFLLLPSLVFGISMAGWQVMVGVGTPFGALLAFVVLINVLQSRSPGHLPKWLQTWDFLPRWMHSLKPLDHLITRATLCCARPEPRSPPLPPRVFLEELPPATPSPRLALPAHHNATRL

[2] = biological target: T3, Construct 1 (chimeric human NaPi2b, swap in NaPi2c in 239-259) (human); assay: flow cytometry, transfected HEK293-6e cells, antibody 200 nM;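 note: cells incubated with antibody for 24 h at 4 °C, background taken as average MFI of unstained cells without primary antibody, at least 1,000 events per well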
T3 construct: also called CL_#29914

[3] = biological target: T4, Construct 2 (chimeric human NaPi2b, swap in NaPi2c in 280-301) (human); assay: as above
T4 construct: also called CL_#29915

[4] = biological target: T5, Construct 7 (human NaPi2b del 317-326) (human, UniProt O95436 1-690); assay: as above
T5 construct: also called CL_#29921
T5 sequence: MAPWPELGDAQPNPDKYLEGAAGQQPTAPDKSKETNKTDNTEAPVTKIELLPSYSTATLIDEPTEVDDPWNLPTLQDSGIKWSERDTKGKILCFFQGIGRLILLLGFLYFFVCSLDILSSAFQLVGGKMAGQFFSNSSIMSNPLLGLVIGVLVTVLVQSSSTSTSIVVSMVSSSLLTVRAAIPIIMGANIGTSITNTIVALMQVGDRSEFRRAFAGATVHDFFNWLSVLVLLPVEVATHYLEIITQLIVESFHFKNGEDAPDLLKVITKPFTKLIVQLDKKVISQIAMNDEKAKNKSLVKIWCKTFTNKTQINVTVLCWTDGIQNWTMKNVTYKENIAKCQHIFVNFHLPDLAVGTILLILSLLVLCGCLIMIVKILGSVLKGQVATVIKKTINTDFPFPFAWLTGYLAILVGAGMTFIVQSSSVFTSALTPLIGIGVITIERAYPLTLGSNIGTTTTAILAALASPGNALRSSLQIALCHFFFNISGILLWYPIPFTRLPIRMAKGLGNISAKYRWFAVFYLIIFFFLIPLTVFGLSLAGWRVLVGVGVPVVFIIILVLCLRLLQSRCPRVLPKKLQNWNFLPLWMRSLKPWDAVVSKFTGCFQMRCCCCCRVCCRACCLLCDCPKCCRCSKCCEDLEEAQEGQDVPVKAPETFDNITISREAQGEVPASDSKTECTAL

[5] = biological target: T6, Construct 5 (chimeric human NaPi2b, swap in NaPi2a in 304-348) (human); assay: as above
T6 construct: also called CL_#13436

[6] = biological target: T7, Construct 4 (chimeric human NaPi2b, swap in NaPi2c in 341-358) (human); assay: flow cytometry, transfected HEK293-6e cells, antibody 20 nM
T7 construct: also called CL_#13435

[7] = biological target: T8, Construct 3 (chimeric human NaPi2b, swap in NaPi2c in 304-321) (human); assay: as above
T8 construct: also called CL_#29916

[8] = biological target: T4, Construct 2 (chimeric human NaPi2b, …); assay: as above
[9] = biological target: T5, Construct 7 (human NaPi2b del 317-326); assay: as above

B1: v18992 (MX35), reference anti-NaPi2b antibody (antibody, human IgG1, kappa)
heavy 1: GQVQLVQSGAEVVKPGASVKMSCKASGYTFTGYNIHWVKQAPGQGLEWIGAIYPGNGDTSYKQKFRGRATLTADTSTSTVYMELSSLRSEDSAVYYCARGETARATFAYWGQGTLVTVSSASTKGPSVFPLAPSSKSTSGGTAALGCLVKDYFPEPVTVSWNSGALTSGVHTFPAVLQSSGLYSLSSVVTVPSSSLGTQTYICNVNHKPSNTKVDKKVEPKSCDKTHTCPPCPAPELLGGPSVFLFPPKPKDTLMISRTPEVTCVVVDVSHEDPEVKFNWYVDGVEVHNAKTKPREEQYNSTYRVVSVLTVLHQDWLNGKEYKCKVSNKALPAPIEKTISKAKGQPREPQVYVYPPSRDELTKNQVSLTCLVKGFYPSDIAVEWESNGQPENNYKTTPPVLDSDGSFALVSKLTVDKSRWQQGNVFSCSVMHEALHNHYTQKSLSLSPG
heavy 2: not shown
light: GDIQMTQSPSSLSASVGDRVTITCSASQDIGNFLNWYQQKPGKTVKVLIYYTSSLYSGVPSRFSGSGSGTDYTLTISSLQPEDFATYYCQQYSKLPLTFGQGTKLELKRTVAAPSVFIFPPSDEQLKSGTASVVCLLNNFYPREAKVQWKVDNALQSGNSQESVTEQDSKDSTYSLSSTLTLSKADYEKHKVYACEVTHQGLSSPVTKSFNRGEC
In the case of B1, the “EC50 (read off the curve)” value [1] is reported as about 2 nM and the binding result (human NaPi2a) is reported as “no binding (tested: 200 nM)”.

B2: v22277 (palivizumab, anti-RSV negative control, heterodimeric Fc) (antibody, human IgG1, kappa)
heavy 1: GQVTLRESGPALVKPTQTLTLTCTFSGFSLSTSGMSVGWIRQPPGKALEWLADIWWDDKKDYNPSLKSRLTISKDTSKNQVVLKVTNMDPADTATYYCARSMITNWYFDVWGAGTTVTVSSASTKGPSVFPLAPSSKSTSGGTAALGCLVKDYFPEPVTVSWNSGALTSGVHTFPAVLQSSGLYSLSSVVTVPSSSLGTQTYICNVNHKPSNTKVDKKVEPKSCDKTHTCPPCPAPELLGGPSVFLFPPKPKDTLMISRTPEVTCVVVDVSHEDPEVKFNWYVDGVEVHNAKTKPREEQYNSTYRVVSVLTVLHQDWLNGKEYKCKVSNKALPAPIEKTISKAKGQPREPQVYVYPPSRDELTKNQVSLTCLVKGFYPSDIAVEWESNGQPENNYKTTPPVLDSDGSFALVSKLTVDKSRWQQGNVFSCSVMHEALHNHYTQKSLSLSPG
heavy 2: not shown
light: GDIQMTQSPSTLSASVGDRVTITCKSQLSVGYMHWYQQKPGKAPKLLIYDTSKLASGVPSRFSGSGSGTEFTLTISSLQPDDFATYYCFQGSGYPFTFGGGTKLEIKRTVAAPSVFIFPPSDEQLKSGTASVVCLLNNFYPREAKVQWKVDNALQSGNSQESVTEQDSKDSTYSLSSTLTLSKADYEKHKVYACEVTHQGLSSPVTKSFNRGEC
notes: also called neg control
B2: no binding (tested: 200 nM) (human NaPi2a).

B3: v18993 (lifastuzumab), reference anti-NaPi2b antibody (antibody, human IgG1, kappa)
heavy 1: GEVQLVESGGGLVQPGGSLRLSCAASGFSFSDFAMSWVRQAPGKGLEWVATIGRVAFHTYYPDSMKGRFTISRDNSKNTLYLQMNSLRAEDTAVYYCARHRGFDVGHFDFWGQGTLVTVSSASTKGPSVFPLAPSSKSTSGGTAALGCLVKDYFPEPVTVSWNSGALTSGVHTFPAVLQSSGLYSLSSVVTVPSSSLGTQTYICNVNHKPSNTKVDKKVEPKSCDKTHTCPPCPAPELLGGPSVFLFPPKPKDTLMISRTPEVTCVVVDVSHEDPEVKFNWYVDGVEVHNAKTKPREEQYNSTYRVVSVLTVLHQDWLNGKEYKCKVSNKALPAPIEKTISKAKGQPREPQVYVYPPSRDELTKNQVSLTCLVKGFYPSDIAVEWESNGQPENNYKTTPPVLDSDGSFALVSKLTVDKSRWQQGNVFSCSVMHEALHNHYTQKSLSLSPG
heavy 2: not shown
light: GDIQMTQSPSSLSASVGDRVTITCRSSETLVHSSGNTYLEWYQQKPGKAPKLLIYRVSNRFSGVPSRFSGSGSGTDFTLTISSLQPEDFATYYCFQGSFNPLTFGQGTKVEIKRTVAAPSVFIFPPSDEQLKSGTASVVCLLNNFYPREAKVQWKVDNALQSGNSQESVTEQDSKDSTYSLSSTLTLSKADYEKHKVYACEVTHQGLSSPVTKSFNRGEC
B3 was tested, and the “EC50 (read off the curve)” value [1] was about 3 nM and the binding result (human NaPi2a) was “no binding (tested: 200 nM)”.

B4: v38591 (humanized anti-NaPi2b antibody, wild-type Fc) (antibody, human IgG1, kappa)
heavy: not shown
light: DVQMTQSPSSLSASVGDRVTITCRASQDVYSYLNWYQQKPGKAVKLLIYYTSRLQSGVPSRFSGSGSGTDYTLTISSLQPEDFATYYCQQYNIFPWTFGQGTKLEIKRTVAAPSVFIFPPSDEQLKSGTASVVCLLNNFYPREAKVQWKVDNALQSGNSQESVTEQDSKDSTYSLSSTLTLSKADYEKHKVYACEVTHQGLSSPVTKSFNRGEC
notes: also called v38591 Wild-type; H1L2
B4 was tested, and the “EC50 (read off the curve)” value [1] was about 2 nM and the binding result (human NaPi2a) was “no binding (tested: 200 nM)”.

B5: v38591 (humanized anti-NaPi2b antibody, H1L2, wild-type Fc, heavy chains with C-terminal lysine) (antibody, human IgG1, kappa)
heavy: not shown
light: DVQMTQSPSSLSASVGDRVTITCRASQDVYSYLNWYQQKPGKAVKLLIYYTSRLQSGVPSRFSGSGSGTDYTLTISSLQPEDFATYYCQQYNIFPWTFGQGTKLEIKRTVAAPSVFIFPPSDEQLKSGTASVVCLLNNFYPREAKVQWKVDNALQSGNSQESVTEQDSKDSTYSLSSTLTLSKADYEKHKVYACEVTHQGLSSPVTKSFNRGEC
notes: Full-size human IgG1/kappa antibody; also called v38591 (wild-type Fc)
B5 was tested, and the “Background-Subtracted AF647 Mean Fluorescence Intensity” value [2] was 2160 MFI, the “Background-Subtracted AF647 Mean Fluorescence Intensity” value [3] was 1410 MFI and the “Background-Subtracted AF647 Mean Fluorescence Intensity” value [4] was 626 MFI. For the same binder, the “Background-Subtracted AF647 Mean Fluorescence Intensity” value [5] was 204 MFI, the “Background-Subtracted AF647 Mean Fluorescence Intensity” value [6] was 993 MFI and the “Background-Subtracted AF647 Mean Fluorescence Intensity” value [7] was 1120 MFI. The “Background-Subtracted AF647 Mean Fluorescence Intensity” value [8] was 1340 MFI and the “Background-Subtracted AF647 Mean Fluorescence Intensity” value [9] was 981 MFI.
